# According to patent publication US20110262525A1, “METHODS OF TREATMENT” (SCHERING CORPORATION, priority 2006, published 2011):
# Marks after values point to notes of the source that are not given here.
# B1: LCF/HCA: fully human anti-IGF1R antibody comprising the mature 19D12/15H12 light chain F (LCF) and mature heavy chain A (HCA) (antibody, V domains shown)
# VH: EVQLVQSGGGLVHPGGSLRLSCAASGFTFSSFAMHWVRQAPGKGLEWISVIDTRGATYYADSVKGRFTISRDNAKNSLYLQMNSLRAEDMAVYYCARLGNFYYGMDVWGQGTTVTVSS
# VL: EIVLTQVPDFQSVTPKEKVTITCRASQSIGSSLHWYQQKPDQSPKLLIKYASQSLSGVPSRFSGSGSGTDFTLTINSLEAEDAAAYYCHQSSRLPHTFGGGTKVEIKRT
# Experiments:
# [1] = system: squamous cell carcinoma cell line SCC 15; assay: Cell-Titer Glo proliferation assay, SCC15; type: cell-based, human; details: 0.000256-100 nM antibody, 96 hours
# Procedure: Cell proliferation was assayed using a Cell-Titer Glo assay (Promega Corp.; Madison, Wis.). A cell-titer glo assay generates a “glow” luminescent signal in the presence of ATP from viable cells, which can be detected with a plate reader luminometer or CCD imaging device.
# In this assay, squamous cell carcinoma cells, SCC9, SCC25 and SCC15, were trypsinized, counted and resuspended at 25,000 cells/ml in 10% HI-FBS RPMI containing NEAA, L-Glu, MEM Vitamins and PS. […] (2500 cells) were added to each well BD Falcon 96 well black, clear bottom TC treated plate. Cells were allowed to attach and spread overnight at 37° C. Then, 10% RPMI medium was replaced with […] 2% RPMI, containing the LCF/HCA antibody at the appropriate concentration, the following day. The anti-IGF1R antibody concentrations used in each experiment were 100 nM, 20 nM, 5 nM, 0.8 nM, 0.16 nM, 0.032 nM, 0.0064 nM, 0.00128 nM, and 0.000256 nM. All treatments were prepared in 2% RPMI at 20× concentration and serial diluted. Every test point was prepared in triplicate on separate assay plates. As mentioned above, cell proliferation was measured using the CellTiter-Glo Luminescent Cell Viability Assay (Promega) at 96 hours post treatment. Luminescence was detected on a Wallac 420 Plate Reader with stacker.
# [2] = system: gastric cancer cell line SNU-16; assay: Cell-Titer Glo proliferation assay, SNU-16; type: cell-based, human; details: 0.000256-100 nM antibody
# [3] = system: KT-14 xenograft (Rhabdoid); assay: PPTP in vivo xenograft KT-14; set-up: key to EFS activity notation (high, intermediate, indeterminate): high (!); intermediate (#); indeterminate (^); details: KT-14 (Rhabdoid) xenograft, 0.5 mg per mouse ip twice weekly for four weeks
# Procedure: (§1) The PPTP includes a molecularly characterized in vitro panel of cell lines (n=27) and in vivo panel of xenografts (n=61) representing most of the common types of childhood solid tumors and childhood ALL (acute lymphoblastic leukemia). LCF/HCA anti-IGF1R antibody was tested against the PPTP in vitro panel at concentrations ranging from 0.01 nM to 100 nM; and was tested against the PPTP in vivo panel at a dose of 0.5 mg per mouse administered twice weekly for four weeks via intraperitoneal injection. Three measures of antitumor activity were used: 1) response criteria modeled after the clinical setting; 2) treated-to-control (T/C) tumor volume at day 21; and 3) a time to event (4-fold increase in tumor volume) measure based on the median EFS of treated and control lines (intermediate activity required EFS (event-free survival) T/C>2, and high activity additionally required a net reduction in median tumor volume at the end of the experiment).
# (§2) Stage 1 testing involved testing an agent across the entire PPTP panel of childhood cancer xenograft lines at its maximum tolerated dose (MTD) or at a dose selected based on PK/PD (pharmacokinetic/pharmacodynamic) studies using adult preclinical models.
# (§3) In vivo solid tumor testing: For each xenograft line, 10 mice bearing subcutaneous (SC) tumors initiated treatment when the tumors were between 0.2-0.5 cm^3 in volume. Two perpendicular tumor diameters were measured at once weekly intervals with digital vernier calipers. Assuming tumors to be spherical, volumes were calculated from the formula (π/6)×d3, where d represented the mean diameter.
# (§4) Drug: LCF/HCA was dissolved in 20mM sodium acetate pH 5 buffer containing 150 mM sodium chloride, and administered intraperitoneally twice weekly for 4 consecutive weeks at a dose of 0.5 mg per animal. The antibody was provided to each testing site in coded vials for blinded testing according the PPTP's standard operating procedures.
# (§5) Median Group Response: Each individual mouse in each treatment group was assigned a response score (see Tables above) and a median score for the treatment group was calculated and then each treatment group was assigned an overall response according to the table below.
# (§6) Statistical Methods: Event-free survival (EFS) distributions of each treatment group were compared to the EFS distribution of the respective control group using the exact log rank test. P-values were 2-sided & were not adjusted for multiple comparisons given the exploratory nature of this study. P-values<0.05 were considered to be significant.
# EW8 xenograft (Ewings) = assay: PPTP in vivo xenograft EW8
# Procedure: as §1, §2, §3
# (§7) Drug: LCF/HCA was dissolved in 20mM sodium acetate pH 5 buffer containing 150 mM sodium chloride, and administered intraperitoneally twice weekly for 4 consecutive weeks at a dose of 0.5 mg per animal. […]
# (§8) Median Group Response: Each individual mouse in each treatment group was assigned a response score (see Tables above) and a median score for the treatment group was calculated and then each treatment group was assigned an overall response according to the table below. […]
# [4] = system: Rh30R xenograft (ALV Rhabdomyosarcoma); assay: PPTP in vivo xenograft Rh30R
# Procedure: as §1, §2, §3, §4, §5, §6
# [5] = system: BT-28 xenograft (Medulloblastoma); assay: PPTP in vivo xenograft BT-28; details: BT-28 (Medulloblastoma) xenograft, 0.5 mg per mouse ip twice weekly for four weeks
# Procedure: as §1, §2, §3, §7, §8
# [6] = system: BT-46 xenograft (Medulloblastoma); assay: PPTP in vivo xenograft BT-46; details: BT-46 (Medulloblastoma) xenograft, 0.5 mg per mouse ip twice weekly for four weeks
# Procedure: as §1, §2, §3, §7, §8
# [7] = system: BT-44 xenograft (Ependymoma); assay: PPTP in vivo xenograft BT-44; set-up: key to EFS activity notation (high, intermediate, indeterminate): high (!); intermediate (#); indeterminate (^); details: BT-44 (Ependymoma) xenograft, 0.5 mg per mouse ip twice weekly for four weeks
# Procedure: as §1, §2, §3, §4, §5, §6
# [8] = system: OS-17 xenograft (Osteosarcoma); assay: PPTP in vivo xenograft OS-17; details: OS-17 (Osteosarcoma) xenograft, 0.5 mg per mouse ip twice weekly for four weeks
# Procedure: as §1, §2, §3, §4, §5, §6
# [9] = system: ALL-8 xenograft (ALL T-cell); assay: PPTP in vivo leukemia xenograft ALL-8; details: ALL-8 (ALL T-cell) xenograft; 0.5 mg per mouse ip twice weekly for four weeks
# Procedure: The PPTP includes a molecularly characterized in vitro panel of cell lines (n=27) and in vivo panel of xenografts (n=61) representing most of the common types of childhood solid tumors and childhood ALL (acute lymphoblastic leukemia). LCF/HCA anti-IGF1R antibody was tested against the PPTP in vitro panel at concentrations ranging from 0.01 nM to 100 nM; and was tested against the PPTP in vivo panel at a dose of 0.5 mg per mouse administered twice weekly for four weeks via intraperitoneal injection. […]
# In vivo acute lymphoblastic leukemia testing: For each xenograft line, 8 mice were inoculated with 3-5×10^6 mononuclear cells purified from the spleens of secondary recipient mice. Engraftment was monitored weekly by flow cytometry, and treatment was initiated when the proportion of human CD45+ cells in the peripheral blood reached 1%. The proportion of human CD45+ cells in the peripheral blood was monitored weekly throughout the course of treatment. […]
# as §8
# [10] = 0.5 mg per mouse ip twice weekly for four weeks
# [11] = day 21, 0.5 mg per mouse ip twice weekly for four weeks
molecule,measurement,setting,value
B1,proliferation of squamous cell carcinoma cell line,[1],inhibited
same,proliferation of gastric cancer cell line,[2],inhibitied
same,EFS T/C,[3],> 3.3
same,"EFS activity notation (high, intermediate, indeterminate)",[3],#
same,Median Final RTV,[3],1.6#
same,Overall Group Response,[3],PD2 (1 < MS ≦ 3)
same,Tumor Volume T/C,[3]; day 21,0.6
same,EFS T/C,EW8 xenograft (Ewings); [10],1.5
same,Median Final RTV,EW8 xenograft (Ewings); [10],>4
same,Tumor Volume T/C,EW8 xenograft (Ewings); [11],0.86
same,EFS T/C,[4]; [10],1.8
same,Median Final RTV,[4]; [10],>4
same,Overall Group Response,[4]; [10],PD2 (1 < MS ≦ 3)
same,Tumor Volume T/C,[4]; [11],0.49
same,EFS T/C,[5],1.2
same,Median Final RTV,[5],>4
same,Tumor Volume T/C,[5]; day 21,1.18
same,EFS T/C,[6],1.2
same,Median Final RTV,[6],>4
same,Tumor Volume T/C,[6]; day 21,0.69
same,EFS T/C,[7],2.6
same,"EFS activity notation (high, intermediate, indeterminate)",[7],#
same,Median Final RTV,[7],>4#
same,Overall Group Response,[7],PD2 (1 < MS ≦ 3)
same,Tumor Volume T/C,[7]; day 21,0.66
same,EFS T/C,[8],2
same,Median Final RTV,[8],>4
same,Overall Group Response,[8],PD2 (1 < MS ≦ 3)
same,Tumor Volume T/C,[8]; day 21,0.55
same,EFS T/C,[9],1.5
same,Median Final RTV,[9],>25
